Each block holds one substance with its values, some of them ahead of it.
Assays:
[1] = target: Recombinant human FcγRIIIa-V158 (human) (UniProt P08637); assay: SPR Biacore T200; antibody on protein A, FcγRIIIa-V158 analyte; 1:1 kinetic fit
[2] = target: Recombinant human FcγRIIIa-V158 (human) (UniProt P08637); assay: SPR Biacore T200; antibody on Protein A, FcγRIIIa-V158 analyte; 1:1 fit
[3] = target: Recombinant human FcγRIIIa-V158 (human) (UniProt P08637); assay: SPR Biacore T200
[4] = target: FcγRIIIa (V158) expressed on engineered Jurkat effector cells (UniProt P08637); assay: cell-based or functional assay
[5] = target: Recombinant human FcγRIIIa-V158 (human) (UniProt P08637); assay: SPR Carterra LSA; Fc on protein AG, hFcγRIIIa-V158 analyte; 1:1 kinetic fit
[6] = target: biotinylated recombinant human FcRn (human) (UniProt P55899); assay: FcRn affinity chromatography, pH gradient 5.5-9.5
[7] = target: biotinylated recombinant human FcRn (human) (UniProt P55899); assay: SPR Biacore T200, pH 7.4; steady-state RU at 1000 nM antibody; SD 5.4 RU
[8] = target: Recombinant human HPC4-tagged FcγRIIIa-V158 (human) (UniProt P08637); assay: SPR Biacore T200; receptor captured by anti-HPC4, antibody analyte; steady-state RU
[9] = target: biotinylated recombinant human FcRn (human) (UniProt P55899); assay: SPR Biacore T200, pH 6.0; biotin-FcRn on CAP chip, antibody analyte; bivalent fit, apparent KD; SD 10 nM
[10] = target: biotinylated recombinant human FcRn (human) (UniProt P55899); assay: SPR Biacore T200, pH 7.4; steady-state RU at 1000 nM antibody; SD 5.6 RU
[11] = target: biotinylated recombinant human FcRn (human) (UniProt P55899); assay: SPR Biacore T200, pH 6.0; biotin-FcRn on CAP chip, antibody analyte; bivalent fit, apparent KD; SD 47 nM
[12] = target: Recombinant human FcγRIIIa-V158 (human) (UniProt P08637); assay: SPR Biacore T200; antibody on Protein A, FcγRIIIa-V158 analyte; 1:1 fit; remark: listed apart in the source
[13] = target: biotinylated recombinant human FcRn (human) (UniProt P55899); assay: SPR Biacore T200, pH 7.4; steady-state RU at 1000 nM antibody; SD 0.2 RU
[14] = target: biotinylated recombinant human FcRn (human) (UniProt P55899); assay: SPR Biacore T200, pH 6.0; biotin-FcRn on CAP chip, antibody analyte; bivalent fit, apparent KD; SD 700 nM
[15] = target: biotinylated recombinant human FcRn (human) (UniProt P55899); assay: SPR Biacore T200, pH 6.0; biotin-FcRn on CAP chip, antibody analyte; bivalent fit, apparent KD; SD 240 nM
[16] = target: biotinylated recombinant human FcRn (human) (UniProt P55899); assay: SPR Biacore T200, pH 7.4; steady-state RU at 1000 nM antibody; SD 2.1 RU
[17] = target: biotinylated recombinant human FcRn (human) (UniProt P55899); assay: SPR Biacore T200, pH 7.4; steady-state RU at 1000 nM antibody; SD 3.3 RU
[18] = target: biotinylated recombinant human FcRn (human) (UniProt P55899); assay: SPR Biacore T200, pH 6.0; biotin-FcRn on CAP chip, antibody analyte; bivalent fit, apparent KD; SD 260 nM

Fold KD WT [1]: 31 fold | Kd [1]: 0.00379 µM | koff [1]: 0.00832 s⁻¹ | kon [1]: 2.2e+06 M⁻¹ s⁻¹
Substance: DE (R292C/V302C) antibody specific for protein 5 (TPP-35708)

Kd [2]: 0.014 µM | koff [2]: 0.006 s⁻¹
Substance: DE (S239D/I332E) antibody specific for protein 1 (human IgG1)

fold higher affinity than the unmodified DE antibody [3]: 2.3 fold | ADCC activity (ADCC reporter gene assay), fold vs DE antibody without modification [4]: 1.4 fold | Kd [2]: 0.006 µM | koff [2]: 0.002 s⁻¹ | kon [2]: 400000 M⁻¹ s⁻¹
Substance: DE (S239D/I332E) antibody specific for protein 1 containing oligomannose (human IgG1)

Kd [5]: 0.23 µM
Substance: Fc fragment S298A, no kifunensine (from UniProt P01857 104-330)

Kd [5]: 0.021 µM
Substance: Fc fragment S298A, with kifunensine (from UniProt P01857 104-330)

Kd [5]: 0.086 µM
Substance: Fc fragment S298C, no kifunensine (from UniProt P01857 104-330)

Kd [5]: 0.024 µM
Substance: Fc fragment S298C, with kifunensine (from UniProt P01857 104-330)

Substance: LS antibody specific for protein 3, with kifunensine
pH of elution [6]: 7.81 pH | RU (steady state, pH 7.4) [7]: 16.6 RU | Fold Change (Kifunensine Treated vs Untreated) in FcγRIIIa Binding Affinity [8]: 1.75 fold | Fold Change versus WT in FcγRIIIa Binding Affinity with Kifunensine Treatment [8]: 1.85 fold | Kd [9]: 0.658 µM

Substance: LS antibody specific for protein 3, without kifunensine
pH of elution [6]: 7.84 pH | RU (steady state, pH 7.4) [10]: 19.4 RU | Kd [11]: 0.534 µM

Kd [2]: 0.54 µM | koff [2]: 0.031 s⁻¹ | kon [2]: 60000 M⁻¹ s⁻¹ | Kd [12]: 0.557 µM | koff [12]: 0.107 s⁻¹ | kon [12]: 190000 M⁻¹ s⁻¹
Substance: WT antibody specific for protein 1 (human monoclonal IgG1, mAb A)

Kd [2]: 0.256 µM | koff [2]: 0.017 s⁻¹ | kon [2]: 70000 M⁻¹ s⁻¹
Substance: WT antibody specific for protein 1 containing oligomannose (human IgG1)

pH of elution [6]: 7.01 pH | RU (steady state, pH 7.4) [13]: 0.5 RU | Fold Change (Kifunensine Treated vs Untreated) in FcγRIIIa Binding Affinity [8]: 1.76 fold | Fold Change versus WT in FcγRIIIa Binding Affinity with Kifunensine Treatment [8]: 1.76 fold | Kd [14]: 3.04 µM
Substance: WT antibody specific for protein 3, with kifunensine

pH of elution [6]: 7.07 pH | RU (steady state, pH 7.4) [13]: 0.8 RU | Kd [15]: 2 µM
Substance: WT antibody specific for protein 3, without kifunensine

Kd [1]: 0.118 µM
Substance: WT antibody specific for protein 5 (TPP-23424)

pH of elution [6]: 7.68 pH | RU (steady state, pH 7.4) [16]: 9 RU | Fold Change (Kifunensine Treated vs Untreated) in FcγRIIIa Binding Affinity [8]: 2.88 fold | Fold Change versus WT in FcγRIIIa Binding Affinity with Kifunensine Treatment [8]: 1.26 fold | Kd [15]: 1.21 µM
Substance: YTE antibody specific for protein 3, with kifunensine

pH of elution [6]: 7.74 pH | RU (steady state, pH 7.4) [17]: 10.7 RU | Kd [18]: 1.27 µM
Substance: YTE antibody specific for protein 3, without kifunensine

fold increase in receptor binding compared to DE antibody [3]: 3.5 fold | ADCC activity (ADCC reporter gene assay), fold vs DE antibody without modification [4]: 3.2 fold | Kd [12]: 0.004 µM | koff [12]: 0.003 s⁻¹ | kon [12]: 750000 M⁻¹ s⁻¹
Substance: afucosylated DE (S239D/I332E) antibody specific for protein 1 (human IgG1)

Fold KD WT [1]: 8 fold | Kd [1]: 0.0149 µM | koff [1]: 0.00925 s⁻¹ | kon [1]: 622000 M⁻¹ s⁻¹
Substance: afucosylated antibody specific for protein 5 (Creative Biolabs)

fold higher affinity than the unmodified DE antibody [3]: 1.8 fold | Kd [2]: 0.008 µM | koff [2]: 0.004 s⁻¹ | kon [2]: 480000 M⁻¹ s⁻¹
Substance: hypergalactosylated DE (S239D/I332E) antibody specific for protein 1 (human IgG1)
